Experiments:
Experiment in all cases: MST
RMB1 MBD = target: T1, RMB1 MBD (Arabidopsis thaliana, UniProt F4I209 1-81)
T1 sequence: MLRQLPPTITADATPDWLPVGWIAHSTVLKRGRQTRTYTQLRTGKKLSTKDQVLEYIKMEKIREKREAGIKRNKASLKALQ

RMB1 MBD Y38F = target: T2, RMB1 MBD Y38F (Arabidopsis thaliana, UniProt F4I209 1-81, Y38F)
T2 sequence: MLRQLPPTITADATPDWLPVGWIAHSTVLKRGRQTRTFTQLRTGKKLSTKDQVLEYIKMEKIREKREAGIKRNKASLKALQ

RMB1 MBD K50T = target: T3, RMB1 MBD K50T (Arabidopsis thaliana, UniProt F4I209 1-81, K50T)
T3 sequence: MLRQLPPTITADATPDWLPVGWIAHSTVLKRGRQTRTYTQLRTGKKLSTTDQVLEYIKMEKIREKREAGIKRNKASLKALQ

RMB1 MBD W22G = target: T4, RMB1 MBD W22G (Arabidopsis thaliana, UniProt F4I209 1-81, W22G)
T4 sequence: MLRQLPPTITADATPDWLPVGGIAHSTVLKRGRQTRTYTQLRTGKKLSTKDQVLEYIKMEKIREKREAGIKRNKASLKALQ

RMB1 MBD T49A = target: T5, RMB1 MBD T49A (Arabidopsis thaliana, UniProt F4I209 1-81, T49A)
T5 sequence: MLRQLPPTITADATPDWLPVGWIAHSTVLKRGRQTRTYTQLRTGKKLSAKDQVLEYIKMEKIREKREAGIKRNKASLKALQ

B1: AT5G39160 mCG (dsDNA)
DNA 1: TTTGGTACGGACTTTTAGTTACAAGAGAGCATTTAAACAAAAATGACCGGTAGATGGAA
DNA 2: TTCCATCTACCGGTCATTTTTGTTTAAATGCTCTCTTGTAACTAAAAGTCCGTACCAAA
modifications: 5mC at forward 8 and 48; reverse strand line not in material, its methylation unknown
- Kd (RMB1 MBD): 1.77 ± 0.7 µM
- Kd (RMB1 MBD Y38F): 2.15 ± 0.75 µM
- binding result (RMB1 MBD K50T): no binding
- Kd (RMB1 MBD W22G): 13.3 ± 4.67 µM
- Kd (RMB1 MBD T49A): 3.58 ± 2.07 µM

B2: AT5G39160 mCHG (dsDNA)
DNA 1: TTTGGTACGGACTTTTAGTTACAAGAGAGCATTTAAACAAAAATGACCGGTAGATGGAA
DNA 2: TTCCATCTACCGGTCATTTTTGTTTAAATGCTCTCTTGTAACTAAAAGTCCGTACCAAA
modifications: 5mC in CHG context; positions not in material (base sequence taken from Um probe)
- Kd (RMB1 MBD): 3.34 ± 0.27 µM
- Kd (RMB1 MBD Y38F): 5.16 ± 2 µM
- binding result (RMB1 MBD K50T): no binding
- Kd (RMB1 MBD T49A): 4.11 ± 2.92 µM

B3: AT5G39160 mCHH (dsDNA)
DNA 1: TTTGGTACGGACTTTTAGTTACAAGAGAGCATTTAAACAAAAATGACCGGTAGATGGAA
DNA 2: TTCCATCTACCGGTCATTTTTGTTTAAATGCTCTCTTGTAACTAAAAGTCCGTACCAAA
modifications: 5mC at forward 12, 22, 30, 38; reverse unmethylated
- Kd (RMB1 MBD): 2.86 ± 1.21 µM
